Molecular target: EvdS6 (Micromonospora carbonacea var. aurantiaca)
Assay: crystal structure; EvdS6 with copurified NAD+, ligand-free and TDP-bound states; hanging drop at about 25 °C; two protein chains in the asymmetric unit

stoichiometry N: 2
Substance: EvdS6 (enzyme)

Reference: publication PMC10338323
